From the DeepSol protein solubility set

Assay: soluble on expression in E. coli; label from the status in PepcDB or PDB records

Sequence | soluble on expression in E. coli
MGSDKIHHHHHHMRIFLVGMMGSGKSTIGKRISEVLDLQFIDMDEEIERREGRSVRRIFEEDGEEYFRLKEKELLKELVERDNVVVATGGGVVVDPENRELLKKEKTLFLYAPPEVLMERVTTENRPLLSEGKERIREIWEKRKQFYAEFRRIDTSRLNEWETTALVVLEALDEKEISTIEKPHLVKIILGGFKRVRNEELVFTTERVEKIYGRYLPENRLLFPDGEEVKTLEHVSRAYYELIRMDFPRGKTIAGVGGGALTDFTGFVASTFKRGVGLSFYPTTLLAQVDASVGGKNAIDFAGVKNVVGTFRMPDYVIIDPTVTLSMDEGRFEEGVVEAFKMTILSGRGVELFDEPEKIEKRNLRVLSEMVKISVEEKARIVMEDPYDMGLRHALNLGHTLGHVYEMLEGVPHGIAVAWGIEKETMYLYRKGIVPKETMRWIVEKVKQIVPIPVPSVDVEKARNLILNDKKILKGSRVRLPYVKEIGKIEFLEVDPLELLEVVD | not soluble
GHMGQSPDAPIADTPGEQQEINLYSSRHYNTDNELYAKFTAETGIKVNLIEGKADELLERIKSEGANSPADVLLTVDLARLWRAEEDGIFQPVQSEILETNVPEYLRSPDGMWFGFTKRARVIMYNKGKVKPEELSTYEELADPKWKGRVIIRSSSNEYNQSLVASLVVADGEESTLAWAKGFVSNFAREPQGNDTAQIEAVSSGEADLTLANTYYMGRLLESEDPAQKAIAENVGVFFPNQEGRGTHVNVSGVGVVKTAPNREGAVKFIEFLVSEPAQAFLAQNNYEYPVLAGVPLNKSVASFGEFKSDTTSLDKLGPALAPATKIMNEAGWK | soluble
MSAEGFLAEHAHRRPSSRRRRAAQFGSPLTPGQDETVSDRTTADLERELAMLAYVRDRLRASEGEGFRIPTTAVDQVLDERNSLERSPWDPT | not soluble
MLSRPSGTVAKTEFQLRRNVLPALKRFVSAAAKSAGVQEKTTVLENGLRVSSVELNGATSSIVLAFRAGSRYQPANKQGLTHLIRNSVGRDAPNFPGLALVWNTAQNGGNLTAVSNRDVLAIEVNVVRDQSAVVLSLLGQLGNNAFKPWDVEDVKHDTLPADATYLTGTTIAFEQLHQAAFRNGGLGLSNYSVNNVSAKDLSAFAKERLVAGEAVLVGVNVDHDTLVQAGSTQFPLAQNQPAKATPAKYFGGEARKDGRGNRSYVAIAGEGSAITSVKDVAVQAVVAQILLNAAQKVTSEAISVNVNYQDSGLVGVQFAACNTQITQVTKSIASAIKSAKADGLDNAKNTAAVQVLSDAQHASEVALEKATQVLAGVEVSPREFADAIRAVTAQDVTQALSRVNGKLSLAAYGSTSLVPYLDEL | not soluble
MAHHHHHHMSVEELFATARKYSDSVVGGPAWDRLFSLRLTNEEILCIAKKMILSQPTFLMEVNGTKLEEIPPLAVAVRIEAFTNVPKSEGESGGVEKAVALEEKRTAAQQREVLRELASVRAQYRAVLREGNDLMACIDEEERRWNKIEMHREEEQRKRKEHPAAPPSEHDEHIRKNVCALETLQQKREKEEESAQATARTVMAEKKRKKTGKGSRGGGGSEKKFASTSNVTSKEAEIRNVRAHNTALRRLLEKLANELKEEEQTMENLSIDLRGFMSDINKLEKAKLLLTVEHGMLMNTTARLQQSLRDQKEKLRQEQEAAAAEQREISRRLLVQQERTKKSLHEKNGTTELLHRLKTNLSK | not soluble
MSLNRIILLDRDGVINTDSINYIKNVDELIIIPDSIIAIARLSAAGYKIGVATNQSGVSRGLYSEDDLSAIHCKLREVLAEAGGQIDALEYCIHLPEDNCFCRKPQPGMLKALAEKLNCSLDSVPFVGDRVSDIQAALAVGAQPIIVLSNMTDMSELAQYPKVPIYNSLLQYVNQLLLEGHHHHHH | soluble
MAKRVVSVSLGSSRRDAAAEVELLGERVLLERRGTDGDFQRALCLIQELDGKVDAIGLGGIDLYLFAGGRRYAIRDALRLKEAAKKTPVVDGSGLKHTLERRAVRELASLIDWRKTKVLLPSAVDRFGLAEALDEAGARVLYGDFIFALGLPIPLYSLSFLQKLAFLLLPLFTRLPFSVLYPTGKKQEEVREDWRARYYAWADVVAGDWHYVRRHMPKDMRGKTVITNTTTEEDVAFLRERGVRRLVTTTPRLGGRSFGTNVMEAMLVALAGRELGEADYLRYIDQIGLKPQVLELKGQA | soluble
MGSDKIHHHHHHMGKLVVQGGAVLEGEVEISGSKNAALPIMAAAILCDEEVILKNVPRLQDVFVMIDILRSIGFRVEFEENELKIKRENDISQEVPYELVRKMRASFNVLGPIAVRTGRAKVALPGGCSIGVRPVDFHLEGLKKMGFSIKVEHGFVEACFERRIDYVTITLPFPSVGATEHLMTTAALLKGARVVIENAAMEPEIVDLQNFINRMGGHIEGAGTSRIVIEGVEKMQGVEYSIIPDRIEAGTYLVAIAASRGKGLVKNVNPDHLTNFFEKLEETGAKLKVLGNEVEIEMRERPKAVDVTTNPYPGFPTDLQPQMMAYLSTASGVSVITENVFKTRFLHVDELKRMGADIEVSGNVAIVKGVEKLSGAPVEGTDLRATAALLIAGIIADGVTEISNVEHIFRGYEDVIDKFSELGAKIEYVEKEN | not soluble
MGSDKIHHHHHHMMRNIAICSNEVENLILGQDSVKTIDMNGILVRCGLLRTENIYFDRNAVSNRFKVLVKKKAFSCNYRDKSIIFRITKQAPENTFYVVGSDFVGEVIATGSEVTELKVGDRVIANNAYPESDALEAFPGIPSNHASKEYQVFHQAKLIKIPLEMSDEIAAAFSIGGQTSYSIVRKFNPTKGSNILVTAAKSNTSLFVINALKKYDVNIYATSTSRLFEEELRAMGVKKVILVESKPNSLLENQSIQNIVAETGGFDCVFDPFFDLYLGQSVELMKIGAKYITCGLYDQYFELINQSFTPFSLNTNHIMGSVMTKNLQIIGNCLGLTEDLKNAIQDYALGHLNVVIDSVFTGKDIEGFFERTYNAKDRFGKVVYKYE | not soluble
MPGFNYGGDQDEVYTPYRRVLVTGATGLLGRAVYKEFKNNDWDALGCGYNRARPFFLKCNLLDEDAVRGVIQSFQPHVIVHCAAERRPDVVERHTEAAMNLNVHACATLAKEAGGSFLIYISTDYVFDGRNPPYGENDAPNPLNLYGKSKLEGEREILRHCPGAAVLRVPILFGEVEKVEESAVTVLFERVQEGAESCTIDHCQQRFPTYTNDVARVCRNMAERALQDQSLRGIFHYSAKEQMTKYEMTCAIADAFNLPSSHLIPMTEQPAGAGAQRPQNAQLECSRLELLGLSVESTPFKNAIRDSLWPFQHDKRWRQTVFH | soluble
GHMGEEQYNRYQQYGAEECVLQMGGVLCPRPGCGAGLLPEPDQRKVTCEGGNGLGCGFAFCRECKEAYHEGECSAVFEAS | soluble
MLSKPMELLRPSKGMINVHPIQRGGILTEEARKVLLEWGDGYSMCDICLEGRVDLLDKPPVKRFKEEVAEFLGMDEVRFTAGARHAKFVAMSGFKGALVVDSLAHYTTYIAAELNGLRVYEVPNTGYPEFRIEAESYTDVFEKVKEETGDYPAVALLTHADYKYGNLADAKKVAEICRDYGIPLILNTAYTSGIMEVSGRETGCDFIVASGHKSWAATAPIGILATTFEFAERVFRVSEVRGNWSGRAFTKKEVALFGCSPVYGLPLVTLMASFPVVKERVKRWKEEVEKARWFVEEMEKIEGVMLLGERPKNHTLMNFETPSFNLIAKKHRRKGYFLYHELKERGIFGVQPGMTRNVKLNVYGLSWEEVERVAEAFKEIAEKYGLEVED | not soluble
MQKIVIVANGAPYGSESLFNSLRLAIALREQESNLDLRLFLMSDAVTAGLRGQKPGEGYNIQQMLEILTAQNVPVKLCKTCTDGRGISTLPLIDGVEIGTLVELAQWTLSADKVLTF | soluble
MSLKNLHPIMLAGTGSDVGKSVIAAALCRIFKQDGYRPAPFKAQNMALNSYATPEGLEIGRAQAVQAEAAGVPCHTDMNPLLLKPSSDHTSQVVLNGRPIGNRNAFEYFRKEGREELRQEVNAAFDRLAARYNPIVMEGAGSISEINLRDTDLVNMPMACYADADVILVADIDRGGVFASVYGSVMLQTPEDKKRIKGVIINKFRGDIRLFESGVKMMEDLCGIPVLGIIPYYRNIHIEEEDSVGLDYKRMQAVEGKINIAVVLLRHLSNFTDFNRLERDERVHLYYTNNTEDLAKADIILLPGSKSTLDDLYELRRNGVAQAVLRAHREGVTVMGICGGYQLMGLEIHDPEGVEGEIRQLPGLGLLPVITTMQGEKVTRQVNFHFLENAETCQGYEIHMGETRPVPGEAVVPLNKLEDGGEDGCFVNQKCMGSYIHGILDNQAFIDYLLEPYAEKLEEGHHHHHH | not soluble
MGSDKIHHHHHHENLYFQGMIIRYATPDDIEDMVSIFIDAYNFPGPRESVKSSFEISLEVQPDGCLLAFLKDEPVGMGCIFFYNKQAWIGLMGVKKAYQRRGIGTEVFRRLLEIGRRKVDTIRLDASSQGYGLYKKFKFVDEYRTVRYELMERPIKRVEGVVEVNKIPNWVKEIDKKAFGDDRIRVLEAYMRRGARLLCAENEGFGLVYRGKIGPLVADSPRVAEKILLKAFQLGAREIIIPEVNKDALELIKIFKPSQVTSCMRMRLGSKIEEKVDIYYGILAYAKG | soluble
MNLKDPICAIATPPGKGAIGVVRLSGEGALEIAARVWRGKDPRRLKGGRFALGEVVDPKTGEAIDQAILLVFRAPRSYTGEDLVEFQTHGSPAVLRRVMEVLVAEGARPAGRGEFTFRAYLNGKMDLAQAEAVLALIEAEGELARRQALRALEGALSRRIEALENRLLNLLAHIQALLDYPEEGVEPLEAERTIREVLAEVEALLAQAKASRLAQKGARLALIGAPNAGKSSLLNALLGYERALVSPIPGTTRDYLEAPLELFGIPLVAVDTAGVRETEDPVERMGVERALGIAEEADLVLYVVDRSQPKPAPPPLPWARTLKVATKSDLPPAWEDPEFLPVSSLTGEGLDRLKEAVREALLGREGGEVLLTERQVEALLRARERLEEALSLPEDLMGLALEEAARALALLTGKEVAEEVVARVFQNFCVGK | soluble
MSLRIPTKPSPVFDAATDPAGSGKDLGNLPDWDLSDLYAAPDAPEVTRDLDRLKTLCADFAERYEGKLADLDAQGMLTCVTAHEEIDRIAGRLMSYAGLRYYQVTTDGERAQFLQNCQEKLTDYTTPLVFFSLEINRIPDDKLDALFEANADLARYKPIFDRLRAMRPYQLSDELEKFLHDQSAVGSAAWNKLFDETMARLTFSPEGEDEDLSLEATLNLLSEQKRSRREAGARELARVFGENLPLFARVHNTLAKEKEIEDRWRKMPSAQTARHLSNHVEPEVVEALRNAVVDAYPKLSHRYYALKAKWLGLETMEVWDRNAPLPMEEERVIDWPKAREMVLSAYAGFDPEMAAIAEPFFDRGWIDAGVKPGKAPGAFAHPTVTDAHPYVLLNYLGKPRDVMTLAHELGHGVHQVLAAGQGELLADTPLTLAETASVFGEMLTFRKLLAEAPDAAQKKVLLAGKVEDMINTVVRQIAFYDFECKLHEARRTRGELTTSQINELWMSVQGESLGPAFTFMDGYETFWSYIPHFVHSPFYVYAYAFGDGLVNALYAVYEEGDPDFQKKYFEMLKAGGSKHHSELLKPFGLDASDPKFWDKGLSMISGFIDELEAMEDEGHHHHHH | soluble
MPDSILEAARGGRTMQKYSEMSKEQLQAVKKELDQQYAEIKAQGLALDMSRGKPSVDQLNISMDMMDVLSSSTDLRCETGVDCRNYGVMDGIPEAKRLLGEISEVDPEHIIIYGNSSLNVMFDTVSRSMTHGVMGNTPWCKLDKVKFLCPVPGYDRHFKITEFFGIEMINVPMSPEGPDMDMVEKLVSEDPAIKGIWCVPKYSNPQGYTYSEETVKRFANLKPAAPDFRIYWDNAYSVHHLYDDEKDQDFLLEILDECAKAGNPDMVYKFTSTSKISFPGSGIAALAASKANLDDIRKYITVQTIGHDKLNQLRHVKFFKDLEGVHAHMRKHAAILRPKFEMVEATLEKELGGLGIGEWTTPKGGYFISFESLDGCAKKIVAMAKEAGVVMTGAGATYPYGKDPKDSNIRIAPSFPPIEELEKAAQVFVVCVKLASVEKLLAE | not soluble
